Experimental data taken from paper PMC4262410, “Identification of Dipeptidyl-Peptidase (DPP)5 and DPP7 in Porphyromonas endodontalis, Distinct from Those in Porphyromonas gingivalis” (PLoS ONE, 2014).
Residues, ends and D or L forms follow the SMILES beside them. *: point of attachment. AMC = Cc1cc(=O)oc2cc(N*)ccc12

Assays:
[1] = tested on: Cc1cc(=O)oc2cc(NC(=O)[C@H](C)NC(=O)[C@@H](N)CCCCN)ccc12; assay: fluorescence of released aminomethylcoumarin, Michaelis-Menten fit; type: biochemical, Porphyromonas gingivalis; conditions: 50 mM sodium phosphate pH 7.0, 5 mM EDTA, 0.1 M NaCl, 37°C
From the text: (§1) fluorescence of released aminomethylcoumarin, Michaelis-Menten fit on PgDPP5

[2] = tested on: Cc1cc(=O)oc2cc(NC(=O)[C@H](Cc3ccc(O)cc3)NC(=O)[C@@H](N)CO)ccc12; assay: as above; type: biochemical, Porphyromonas gingivalis; conditions: 50 mM sodium phosphate pH 7.0, 5 mM EDTA, 0.1 M NaCl, 37°C
From the text: as §1

[3] = tested on: Cc1cc(=O)oc2cc(NC(=O)[C@H](Cc3ccccc3)NC(=O)CN)ccc12; assay: as above; type: biochemical, Porphyromonas gingivalis; conditions: 50 mM sodium phosphate pH 7.0, 5 mM EDTA, 0.1 M NaCl, 37°C
From the text: as §1

[4] = tested on: Cc1cc(=O)oc2cc(NC(=O)[C@H](C)NC(=O)[C@@H](N)CCCCN)ccc12; assay: purified protein; conditions: 50 mM sodium phosphate pH 7.0, 5 mM EDTA, 0.1 M NaCl, 37°C
From the text: (§2) fluorescence of released aminomethylcoumarin, Michaelis-Menten fit on PeDPP5 (MER236725)

[5] = tested on: Cc1cc(=O)oc2cc(NC(=O)[C@H](Cc3ccc(O)cc3)NC(=O)[C@@H](N)CO)ccc12; assay: purified protein; conditions: 50 mM sodium phosphate pH 7.0, 5 mM EDTA, 0.1 M NaCl, 37°C
From the text: as §2

[6] = tested on: Cc1cc(=O)oc2cc(NC(=O)[C@H](Cc3ccccc3)NC(=O)CN)ccc12; assay: purified protein; conditions: 50 mM sodium phosphate pH 7.0, 5 mM EDTA, 0.1 M NaCl, 37°C
From the text: as §2

[7] = biological target: T1, PeDPP7 (MER278904) (Porphyromonas endodontalis, UniProt C3JAQ3); assay: fluorescence of released aminomethylcoumarin, hydrolysis rate; type: biochemical; conditions: 20 µM substrate, 50 mM sodium phosphate pH 7.0, 5 mM EDTA, 37°C
T1 construct: gene dpp7; 70-kDa single band; S46 family
T1 sequence (C3JAQ3 3-710): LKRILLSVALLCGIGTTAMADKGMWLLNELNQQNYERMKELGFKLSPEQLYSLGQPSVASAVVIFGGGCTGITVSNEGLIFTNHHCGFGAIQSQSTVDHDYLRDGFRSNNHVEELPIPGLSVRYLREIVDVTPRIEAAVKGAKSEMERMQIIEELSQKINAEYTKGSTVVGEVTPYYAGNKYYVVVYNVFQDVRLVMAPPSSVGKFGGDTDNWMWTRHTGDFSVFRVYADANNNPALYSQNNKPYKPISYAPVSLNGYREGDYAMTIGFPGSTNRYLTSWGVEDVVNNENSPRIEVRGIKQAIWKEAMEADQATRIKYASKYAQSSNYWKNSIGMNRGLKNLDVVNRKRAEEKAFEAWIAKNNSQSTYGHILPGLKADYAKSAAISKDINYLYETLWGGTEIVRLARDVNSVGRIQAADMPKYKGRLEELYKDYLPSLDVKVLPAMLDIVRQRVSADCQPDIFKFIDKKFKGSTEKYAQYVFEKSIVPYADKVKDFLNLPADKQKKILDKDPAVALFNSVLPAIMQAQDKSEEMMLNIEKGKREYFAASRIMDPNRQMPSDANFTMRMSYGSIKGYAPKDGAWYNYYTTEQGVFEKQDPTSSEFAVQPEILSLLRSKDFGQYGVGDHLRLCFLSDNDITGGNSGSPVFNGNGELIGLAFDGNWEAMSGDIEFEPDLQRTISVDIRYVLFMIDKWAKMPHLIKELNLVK

Compound: PgDPP5 (Porphyromonas gingivalis ATCC 33277)
- Km [1]: 185 ± 21 µM
- kcat [1]: 1950 ± 165 s⁻¹
- kcat/Km [1]: 1.05e+07 M⁻¹ s⁻¹
- Km [2]: 296 ± 31 µM
- kcat [2]: 1330 ± 100 s⁻¹
- kcat/Km [2]: 4.49e+06 M⁻¹ s⁻¹
- Km [3]: 396 ± 51 µM
- kcat [3]: 5640 ± 403 s⁻¹
- kcat/Km [3]: 1.3e+07 M⁻¹ s⁻¹

Compound: PeDPP5 (MER236725) (Porphyromonas endodontalis ATCC 35406)
- Km [4]: 110 ± 7 µM
- kcat [4]: 21200 ± 932 s⁻¹
- kcat/Km [4]: 1.94e+08 M⁻¹ s⁻¹
- Km [5]: 257 ± 9 µM
- kcat [5]: 3470 ± 87 s⁻¹
- kcat/Km [5]: 1.35e+07 M⁻¹ s⁻¹
- Km [6]: 993 ± 176 µM
- kcat [6]: 10400 ± 1640 s⁻¹
- kcat/Km [6]: 1.05e+07 M⁻¹ s⁻¹

Compound: Cc1cc(=O)oc2cc(NC(=O)[C@H](C)NC(=O)[C@@H](N)CCCCN)ccc12 [Lys-Ala-MCA] (H-Lys-Ala-{AMC})
- fluorescence of released aminomethylcoumarin, hydrolysis rate [7]: slowly hydrolyzed Leu-Gln-, Lys-Ala-, Leu-Arg-, and Ala-Asn-MCA
